Laboratory results: patent publication US20210395725A1 (EVERCYTE, published 2021)
Where a chain is given by its changes, count along the chain named.

Key:
[1] = molecular target: T1, human Her2/neu-Fc (human, UniProt P04626 23-652, biotinylated with EZ-Link Sulfo-NHS-LC-LC-Biotin); assay: flow cytometry, HEK293-6E cell display (pDisplay)
T1 construct: Bought; also called Human Her2/neu-Fc-biotin; biotinylated human Her2/neu-Fc
Description: (§1) 1×10⁵ cells have been blocked in 2% BSA-PBS for 30 min on ice and then stained with each 500 nM biotinylated human EGFR-Fc, biotinylated human Her2/neu-Fc and biotinylated mouse EGFR-Fc for 30 min on ice in 2% BSA-PBS. […] Cells were then centrifuged at 300 g, 5 min at 4° C. and resuspended in 200 μl ice-cold PBS. […] The fluorescence has been determined with Guava EasyCyte flow cytometer.
(§2) 1×10⁵ cells have been blocked in 2% BSA-PBS for 30 min on ice and then stained with each 500 nM biotinylated human EGFR-Fc, biotinylated human Her2/neu-Fc and biotinylated mouse EGFR-Fc for 30 min on ice in 2% BSA-PBS. […] Cells were then centrifuged at 300 g, 5 min at 4° C. and re-suspended in 200 μl ice-cold PBS. […] The fluorescence has been determined with Guava EasyCyte flow cytometer.

[2] = molecular target: T2, human EGFR-Fc (human, UniProt P00533 25-645, biotinylated with EZ-Link Sulfo-NHS-LC-LC-Biotin in most assays); assay: HEK293-6E cell display flow cytometry; 500 nM biotinylated antigen + streptavidin-Alexa Fluor 647; secondary only 5.82
T2 construct: Bought; also called Human EGFR-Fc-biotin; EGFR-Fc-biotin
Description: as §1

[3] = molecular target: T1, human Her2/neu-Fc; assay: as above
Description: as §1

[4] = molecular target: T3, mouse EGFR-Fc (mouse, UniProt Q01279 25-647, limits assumed, biotinylated with EZ-Link Sulfo-NHS-LC-LC-Biotin); assay: as above
T3 construct: Bought; also called Mouse EGFR-Fc-biotin; biotinylated mouse EGFR-Fc
Description: as §1

[5] = molecular target: T4, human placental laminin (human); assay: ELISA; biotinylated laminin 5 µg/ml on streptavidin plate, neat eluted His-tagged protein, anti-pentaHis-HRP
T4 construct: Bought; also called human laminin; laminin-biotin
Description: Neat eluted proteins were tested for binding to their cognate antigen and BSA as a control antigen. Streptavidin-activated plates (Immobilizer, NUNC) were coated with biotinylated laminin at 5 μg/ml in PBS for 30 min at RT and blocked with 4% BSA-PBS for 1 h at RT. Eluted proteins were added in 2% BSA-PBS and allowed to bind for 1 h at RT. […] The reaction was stopped with the addition of H₂SO₄ and the absorbance read at 450/620 nm (Table 15).

[6] = molecular target: T5, streptavidin-Alexafluor 647 (UniProt P22629 37-163, limits assumed, Alexa Fluor 647 conjugate); assay: yeast display flow cytometry, secondary reagent only
T5 construct: Secondary detection reagent, tested alone as a control; also called secondary reagent; 2nd

[7] = molecular target: T3, mouse EGFR-Fc; assay: yeast display flow cytometry, clone 9
[8] = molecular target: T5, streptavidin-Alexafluor 647; assay: yeast display flow cytometry; secondary reagent only
[9] = molecular target: T3, mouse EGFR-Fc; assay: yeast display flow cytometry; mouse EGFR-Fc + streptavidin-Alexafluor 647
[10] = molecular target: T2, human EGFR-Fc; assay: HEK293-6E cell display flow cytometry; 500 nM biotinylated antigen + streptavidin-Alexa Fluor 647; secondary only 14.11
Description: as §2

[11] = molecular target: T1, human Her2/neu-Fc; assay: as above
Description: as §2

[12] = molecular target: T3, mouse EGFR-Fc; assay: as above
Description: as §2

[13] = molecular target: T2, human EGFR-Fc; assay: HEK293-6E cell display flow cytometry; 500 nM biotinylated antigen + streptavidin-Alexa Fluor 647; secondary only 14.11 (same values as in Table 12)
Description: as §2

[14] = molecular target: T1, human Her2/neu-Fc; assay: as above
Description: as §2

[15] = molecular target: T3, mouse EGFR-Fc; assay: as above
Description: as §2

[16] = molecular target: T2, human EGFR-Fc; assay: flow cytometry, HEK293-6E cell display (pDisplay)
Description: as §1, §2

[17] = molecular target: T3, mouse EGFR-Fc; assay: flow cytometry, HEK293-6E cell display (pDisplay)
Description: as §1, §2

[18] = molecular target: T2, human EGFR-Fc; assay: HEK293-6E cell display flow cytometry; 500 nM biotinylated antigen + streptavidin-Alexa Fluor 647; secondary only 2.67
Description: as §2

[19] = molecular target: T1, human Her2/neu-Fc; assay: as above
Description: as §2

[20] = molecular target: T3, mouse EGFR-Fc; assay: as above
Description: as §2

T5 sequence (P22629 37-163 limits assumed): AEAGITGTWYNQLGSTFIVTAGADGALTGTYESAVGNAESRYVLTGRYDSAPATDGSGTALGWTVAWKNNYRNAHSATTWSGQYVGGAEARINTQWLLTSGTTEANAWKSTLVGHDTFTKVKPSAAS

B1: EGFR-specific CD81 LEL binder L2B_EU1_1 (designed binder)
chain: FVNKDQIAKDVKQFYDQALWWCCVLYKANNACAVVKTFHETLDCCGSSTGRSHTACVLKGNLCPSGSNIISNLFKEDCHQKIDDLFSGK
notes: also called L2BE1_1
For B1, the binding result [1] was “no binding (tested: 500 nM)”, the “% antigen binding cells” value [2] was 71.1% and the “% antigen binding cells” value [3] was 8.17%. The “% antigen binding cells” value [4] was 89.3%.

B2: laminin-binding CD81 LEL mutant L3B_LU1_2 (designed binder)
chain: FVNKDQIAKDVKQFYDQCLKYACKQGDWENAKACVKTFHETLDCCGSSTVANMTRCVLPANLCPSGSNIISNLFKEDCHQKIDDLFSGK
B2 was tested, and the “A450/620 (average)” value [5] was 1.32.

B3: CD81 LEL library 1 variant RAN / IWRARRRRS (yeast clones 3, 13, 21 of the mouse EGFR-Fc selection) (designed binder)
chain: FVNKDQIAKDVKQFYDQALQQAVVDDDANNAKAVVKTFHETLDCCGSRANTALTTSVLKNNLCPSGSNIWRARRRRSCHQKIDDLFSGK
notes: also called clone 3; clone 13
B3: no binding [6].

B4: CD81 LEL library 1 variant SSS / SRRWRHRIA (yeast clones 6, 18 of the mouse EGFR-Fc selection) (designed binder)
chain: B3 chain with R48S, A49S, N50S, I69S, W70R, A72W, R74H, R76I, S77A
notes: also called clone 6; clone 18
B4: no binding [6].

B5: CD81 LEL library 1 variant VRR / RRPRKRTRS (yeast clones 1, 8, 15 of the mouse EGFR-Fc selection) (designed binder)
chain: B3 chain with R48V, A49R, N50R, I69R, W70R, R71P, A72R, R73K, R75T
notes: also called clone 1; clone 8
B5: no binding [6].

B6: CD81 LEL library 1 variant ERL / RRSRRRVHD (yeast clones 2, 4, 7, 10, 11, 12, 14, 16, 17, 20, 22, 23 of the mouse EGFR-Fc selection) (designed binder)
chain: B3 chain with R48E, A49R, N50L, I69R, W70R, R71S, A72R, R75V, R76H, S77D
notes: also called clone 2; clone 4
B6: no binding [6].

B7: CD81 LEL library 1 variant SFS / RRFRKRPGD (yeast clones 5, 19 of the mouse EGFR-Fc selection) (designed binder)
chain: FVNKDQIAKDVKQFYDQALQQAVVDDDANNAKAVVKTFHETLDCCGSSFSTALTTSVLKNNLCPSGSNRRFRKRPGDCHQKIDDLFSGK
notes: also called clone 5; clone 19
B7: no binding [6].

B8: CD81 LEL library 1 variant MGN / WWGRRFRVS (yeast clone 9 of the mouse EGFR-Fc selection) (designed binder)
chain: B3 chain with R48M, A49G, I69W, R71G, A72R, R74F, R76V
In the case of B8, the binding result [7] is reported as “no binding”, the median fluorescence [8] is reported as 14.6 and the median fluorescence [9] is reported as 11.8.

B9: wild-type human CD81 LEL (other)
chain: B7 chain with F49T, S50L, R69I, R70I, F71S, R72N, K73L, R74F, P75K, G76E
notes: the formats are named in the assay field; The soluble form runs as a dimer in SEC; also called wild-type CD81 LEL; hCD81 LEL
For B9, the median fluorescence [9] was 9.1, the “% antigen binding cells” value [10] was 10.4% and the “% antigen binding cells” value [11] was 10.5%. For the same binder, the “% antigen binding cells” value [12] was 12.8%, the “% antigen binding cells” value [13] was 10.4% and the “% antigen binding cells” value [14] was 10.5%. The “% antigen binding cells” value [15] was 12.8%.

B10: anti-Her2/neu directed CD81 LEL clone 81_H2_11 (designed binder)
chain: FVNKDQIAKDVKQFYDQALVNCCYTRAANNACAVVKTFHETLDCCGSSTHYVDTHCVLNRNLCPSGSNIISNLFKEDCHQKIDDLFSGK
notes: also called anti-Her2/neu clone
B10 was tested, and the binding result [16] was “no binding (tested: 500 nM)”, the binding result [17] was “no binding (tested: 500 nM)” and the “% antigen binding cells” value [18] was 5.16%. The “% antigen binding cells” value [19] was 44.2% and the “% antigen binding cells” value [20] was 5.68%.

B11: laminin-binding CD81 LEL mutant L2A_LU1 (designed binder)
chain: FVNKDQIAKDVKQFYDQALRECCNTFDANNACAVVKTFHETLDCCGSSTTHSSTGCVLFFNLCPSGSNIISNLFKEDCHQKIDDLFSGK
B11 was tested, and the “A450/620 (average)” value [5] was 0.156.

B12: laminin-binding CD81 LEL mutant L3A_LU1 (designed binder)
chain: FVNKDQIAKDVKQFYDQCLLWACSKRYKYNAKACVKTFHETLDCCGSSTMGNLTECVLIENLCPSGSNIISNLFKEDCHQKIDDLFSGK
B12 was tested, and the “A450/620 (average)” value [5] was 1.7.
